Source: the DeepSol protein solubility set

Assay: soluble on expression in E. coli; label from the status in PepcDB or PDB records

Sequence	soluble on expression in E. coli
MAHHHHHHMSSVLKADVKEYIPSWANKRSSGVNPAATSTNKNGFATSVPTSNVMTTHSGCTGINAQNFTSSPRAAAGLPLCSPTTALRLPTRMSPMHAPFPSVSISMNPNATDFVPHLTGANSLAPLPTSTADLAEEKERQQKQESHLSSSMKWTTTSTRKNITQPALPLAVKANFTPTFAPIYVEKTEEEILEISKRSSLKVGAAAFVPRRTLNRVMIAKPSPFSLTPATGEMTLGDLWCLFYLPAGLGECIRENTYDPTLVFRVDSVATFWKVFNNIPQPTEMKIGTLYFFRDGINPKWEDPGNRDGGILKMKLDSHCINDAWVYLLCRTIGESWSKSVRDTVNGVALKARERAYLLEVWVTEQSAELMMDISELLRPLLGDVFSVFYAPHSVTQERAAAAALAEKKRSRNNRRRW	not soluble
MAHHHHHHMSTEEQQVTQGTAHAPAPTTVKNKANSYYYWHQHEKDRAKVGDVAPMPTPYLVSKDDARAMAAPAVPTVSVSKYSWCDGDKFVSVYIDTVVPEGGTLDESSIEATFTGNSFKVTFATADEAGRTRAKSLSIRLSKRIDKDRSSTKVKPKTQQILVRLAKKVESVWLDLEGEASDQDSAADSEAADAE	soluble
MAHHHHHHMSVSVTEHRHGDMHHGTMRRRCLTRVLLAGPQGDLEALVSRMPRTWSLQQPLEMLQPEAVEEERANTASAAAATRTENAGLAGGKVPDKSAASVMISYSPVRATLPLAAAASEEERAEEDVVDVVAAVEEKAAMKADLHNSSGSAVEPPSLEGTPNVRLHAAQAPHEEQQEEGDCGVVVAHEAPALTEDGIPGADSAVVRAAEVAATLDIGSQLAEAAPCADRASLDSSAALPVSQVPE	not soluble
MAHHHHHHMTEGPLIVVGSVTLDQAARCYSPLSAPLRVRLEYAVLRPVVNPAWAATFEADIAYGRISVPLVQPTACSECMTPLNVPSSFLQHTPSDSIATLQPGELYQLDVHLETMELSKVEEKYVLQVGMLRLILLSGKTELADVNHVVQVKKNDDGELMRLIMNPLV	not soluble
MAHHHHHHMTSPALAPPQNTAEFWIKRLQLVPHPEGGYYSEVVRSAHKVDNEEGNRRHAYTTIYFLCTPESPSHLHRLCSDETWMYHAGDPLQLHVILKDPQDEDRIAAQPPAAPQAETDTADARPKYQVYRRVLVGARVERGELLQYTVPGGAIFGSSVAADGADGQAGYSLVSCIVSPGFDYRDFEIFTQAQLMELYPQHEAVIKQMAYETLPNHARLQTTEI	soluble
MAHHHHHHMTSVLAVVNARRVWRGASVLQPAVSSSYPPEVDALLVEGGRISFIGSTAEVQQRYGALVAAQPVDAAAAAPQPVEGGRPRTVSHRVIDCEHRHAVYPGFIDSHVHFLDGGRMLLAPQLGFATSRTQFTAIVRDFVEHRYNREEGGWVYGVGWSEAVLGCSPTREWLDEVSTKIHLVMYSKDIHSAVMNTAALRSCHIIPGAEDGEPLITSVEGGVIELNENGQPSGVLRDNAIQLAKRYAPAADTPANQRRALEAATEHLLSLGFTSVFSMMSTTYMDNVSEINFLAQMEREGAMRLRVRYGVPLSDVERLMDKFYRVMATDAAQSGRSDDFTLPYRFTMTPPAAGGGYLLLGAVKLFADGSLSSRTAAMNRPYGYNVTTEGDIDSDLDDAAISALLKERSGKQCQCGLLTMSRLELQCAIRVAHSHDLQCVVHAIGDRAVATVNRALCASADWLRERGAEAGVVAAVARFRADPRSRVEHCQHMSSMTKEVKRMAQYGIIASMQPCHLLFDGDYVDTLLGQRRKDTSYMWGTLLAAKIRVDLGSDWPVAPADVNDGLRGAVTRVPDVMTALAAEEAQYRSQQQAQPSADNTAACAATALRRYHDTWNPAECISMDAALRTYTYEGAHGMFMENYLGTLEVGKYADITVWTADWLDDAEMEQMAGVEGANARWWPRHREPHVAYTIVGGVVEYDRSH	not soluble
MAHHHHHHMVDYGEGGKNGSLDTVRQTLVCATRILMLAVSCKKVQLIYTLLPFMALIFKELLVSDDEERLRALFSDAKGQCALAGLRRSTANLSLLLDTEQDFTTLSSPWSFSYDTSEVGMKEIRSLTTFLVSGDSGLSEALEYVTTDCLRSGRLLTLYEIVRGFSLSPYGMMELKLDEVRDPHCGVSSHGEGSSVRGHFPHLPTHGELFLNLFTGIHEEFSLTRSPRCVGNELRRHRSSVVGAEVATTDFTLWTLAQSILYSTPGLPETLRHLRDHFAMWDECVLAINIILMCFTDVVHQLRRHSELVQALQHLLVDERNCGYKSFIRYCLENVS	not soluble
MAHHHHHHMVQRTLLDFVRKKDPSPNVINVDAESDEQDEAASRKRRMQGVREPALAFTKPRTENKDDICCSNNFSALITDSGWRAFLQPLTSTTNFRNIEQFIEGEKTKGKVILPPSDLIFSAFNSTPLDRLKVVLLGQDPYHNIGQAHGLCFSVLPGVRPPPSLLNMYKELTTDISGFKSPPHGYLQCWAEQGVLMLNATLTVEAHQANSHAKCGWQAFTDGVIRLLSEKHQRPIVFLLWGGFARKKITLIDQKRHLVIENAHPSPLSAAKWWGSRPFSKCNAALTQLGHSPIDWSIPMSVERRH	not soluble
MAHHHHHHMWCTRLCREEGLFRFLRNLFEVLDFVTERCRRCLDTSSCLLLLCASPLSSCSIGGPHTRGCFNEILHRLSRGAQQPAHRRQSATSSHPRTPWRLHRFNDERVCVWGGNPPPQSTTGRHRSLCTPFSLSHTPSTAWAPLLPADKHHMQASPVLAGAAVRRTATASVGSEPRTNLPFLINVVKKAQKSANTVVASTPALSSMSSTKEPPIQAAAFKPYPLLSPGEVKQAAGSSLLYKDDVCVLVNDAFPKSMVHCLVMPLDLRLQSLNALTKKDAPLLRHMLHVGDEYVRYLKTAVPHTYTARRFIAGFHALPSLPMLHMHVLSTDLDSPCLKNKKHYNSFATFFFLTGDRVLDDLERHGRVTLNQDVTRLRQMEEQDMKCLWCGTALPSVPAMKSHIQCCPQNKAVEKSS	not soluble
MAHHHHHHMWRRGVAAVPLPLWQGKLLQLVHHRALSTDTTGDEATAWSRAMEAKYGTGTYKLFRPLYKDLSDEMRLEAYTKPPAPMQGWSVHHDEAVNLAIFSHKGDSRSRTARVVAYSPITVENPESLNPLLYFMDWYPINVLMERNGVVVHFSIASTEGGMHMRNVRVYKAQDELSPNDPEKQDLPNRDSECERLMSTTDDAAWVRHNLYYDGPCLWHLELDMLNELYDVMQDHGVTLDWVRWVAEWVHYLEHVSYVRWALGVLQELIPVDERGPEDDFLTFEEKEALATPPEEWLEAHYI	not soluble
MAHHHHHHMYDSRSSGVHDVAPRDGVDFMYEGPQQVLPGAHPLPLFHPDNSVTRPPVSPYLPSPQRPHPYFTTELPELPHFQTTRPIVYTVGTMKQRIVAPVFDLANNVTHTRELDPFIFGFYPETEEMAKNLSYWLVRCQNFSSKWDYENREIWRKAKKNWPNTGMGMARVGDRKNHAHPWGAHSKPVKPWNLLMPTMDVKTWSKSNRMLVTLKMLQGKLQIVERLTLPEPTQEAYLQLCRTMGWDVRHKGGGALFMDGGSRLTPSSEYDRAFFFGSFFNGRNKLVRPTLLCDEPYDYNRTSSKARTKGPKGQKNPIPINRFNAYDALTHDTLIITEGALLQLEDEMYTHKLAMLPPHIRAQLPERGFLDSEVLGDVPPALQTVQMEAAARTEEAEQAMYAPYYDNPYHPWQDEGEASYAVDAVEGTVQRYIKSRKTSWAMLS	not soluble
MAHHHHHHMYSFSLASNRKRAIPNASGLAPPAAAHVIRAPSELKPHQRLPQPLNEAADDAADDDVMQVSNARFGWHPAHAHAPTSSLYSVRPPAEQLVHVHNLNAYAGLRDAADWSVEVQREREQKKRRALAQHEAVKLEEQRHRDAHEEQTKKEMQQRRLERQQERAELREADAMADFQERNTQFLQNQLWLMQLGSYVKQTDAQHKAHVREELHKSSSSRNHLDVDHASTTCWTGTKARGHHASAPSTEIDLRQAAEATEEAYVRLSLAYRNEAQRSRAAAAILHPGELTGKGRSRLQAIRPAGAFASPTSPSAPSQAATAVSTPSHSPAASPAPAAVTEAAAKVSAPFHTAPPMFTHTSTENMGQHANAIPYTYIPEYFDAPSAAATTGKVPAPHRAGESPEQQETGAVMPLPLSPVPVSRDVTGALQARYYPWALYSAATVRKSMLPPLPPPREASLPVRRWGAAELRDSMFGHCILEDGTIQDQCERKKVCAAYLSYTTLPRDNATATSNAAVEPQEPLHFGKRMDIWL	not soluble
MAHHHHHHSLNTNLKPKLQRFASATAFACPICQENLTLLETNFKCCNRHSFDLAKFGYVNLAPQIKQSANYDKENFQNRQQILEAGFYQAILDAVSDLLASSKTTTTILDIGCGEGFYSRKLQESHSEKTFYAFDISKDSVQIAAKSEPNWAVNWFVGDLARLPIKDASMDILLDIFSPANYGEFRRVLSKDGILIKVIPTENHLKEIRQRVQDQLTNKEYSNQDIKEHFQEHFTILSSQTASLTKTITAEQLQALLSMTPLLFHVDQSKIDWSQLTEITIEAEILVGKAFEG	soluble
MAHHHHHHSLTQQYLTVTALTKYLKRKFDADPYLGRVYLTGEISNFRFRANAHQYFSLKDDHAKISAIMFKSAFQKLKFQPKEGMKVMVVGRISLYENSGSYQIYIEHMEPDGVGALYQALAELREKLGKEGLFEGPKQQLPRYPKRIAVVTSPSGAVIRDIITTVKRRYPIAQLVLFPTLVQGEQAADDIVRNIQRADAQSDFDTMIIGRGGGSIEDLWPFNEEKVARAIHAATTPIISSVGHETDVTIADMVADVRAATPTAAAELAVPVLNEELLRISERRSRLEQSFLYLLQQRTERFQRLQNSYVFKQPERLYEGQTIKLDRMTQRLFQAMTTIHHQKQRQAQGIIAQLQQQTPKGQLRESQQQLAFLQRNLQTQMTQLFLNKQKQFTSAVQQLDLLSPLKIMGRGYSYTTKEDRVVKTVTELQPADQLTIHYADGTVQANVETITAKKEEFEG	soluble
MAHIVIVGAGLGGLPTAYELRHILPKQHQVTVISETPYFTFIPSLPWVAMGLTSLESIQVSLQQRLKQKGINWILGRVDYLNPQNQKISLGEQSISYDYLIIATGAELALDAVAGLGPDGYTQSVCNPHHAIKAFQAWQNFLLAPGPLVVGALPKTSCLGPAYEFTLLADYVLRKQGLREQVSITFVTPEPYAGHLGIGGMANSAELVTKFMAERGVEVIENVAVTAIEANQIHLGNGRVLPFAYSMLLPPFRGPRFVRQVPGLSNQDGFIPVLPTYRHPEYASIYAVGVVVEIKPSEVTPLPLGVPKTGQMTEAMGMAVAHNIAIELGVFSAPPVTPTLDAICFADFGNSGILFLANPVLPDLATGKRRRAVALSGAWVTWAKAAFERYFLAKMRFGTAVPWFEKLALKLLGLSLVAPLAVKSSRNISQENYLEHHHHHH	not soluble
MAHMNLLSVTTGDGGLSRYLEEVRRFPMLEPQEEYMLAQRYRKHNDLKAAHKLVTSHLRLVAKIAVGYRGYGLPIGEVISEGNVGLMKAVKRFEPERGFRLATYAIWWIKASIQEYVLRSWSLVKMGTTANQKRLFFNLRKLKSRLQALDNGDLNAEQVKEIAIQLNVTEDEVVSMNRRLGGDTSLNAPLRTKEGENSEWQDWLVDDSNNQEQTLIEQNELENRRSMLTNALDNLNEREKRIFKARRLSDIPLTLEELSSEFNISRERVRQIEMRAFEKIQNSIKASALSQNQV	not soluble
MAHPPRLNDDKPVIWTVSVTRLFELFRDISLEFDHLANITPIQLGFEKAVTYIRKKLANERCDAIIAAGSNGAYLKSRLSVPVILIKPSGYDVLQALAKAGKLTSSIGVVTYQETIPALVAFQKTFNLRLDQRSYITEEDARGQINELKANGTEAVVGAGLITDLAEEAGMTGIFIYSAATVRQAFSDALDMTRMSLRHNTHDATRNALRTRYVLGDMLGQSPQMEQVRQTILLYARSSAAVLIEGETGTGKELAAQAIHREYFARHDARQGKKSHPFVAVNCGAIAESLLEAELFGYEEGAFTGSRRGGRAGLFEIAHGGTLFLDEIGEMPLPLQTRLLRVLEEKEVTRVGGHQPVPVDVRVISATHCNLEEDMQQGRFRRDLFYRLSILRLQLPPLRERVADILPLAESFLKVSLAALSAPFSAALRQGLQASETVLLHYDWPGNIRELRNMMERLALFLSVEPTPDLTPQFMQLLLPELARESAKTPAPRLLTPQQALEKFNGDKTAAANYLGISRTTFWRRLKS	not soluble
